The nature of this data set: label from the status in PepcDB records.
Regarding “MEATKERMEKDQKKRVVTNEAGKAEDNTIRTIIRESIVEDRGSNDDDGNKDNDHGASKPEDILAFSRTVRKIDSSLE”, the protein production entry is reported as “failed”.

“MELKQSLSTHLEAEKPLRRYGAVEETAWKTERLGRNQLDIISMAETTMMPEEIELEMAKIQRLREVLVRRESELRFMMDDIQLCKDIMDLKQELQNLVAIPEKEKTKLQKQREDELIQKIHKLVQKRDFLVDDAEVERLREQEEDKEMADFLRIKLKPLDKVTKSPASSRAEKKAEPPPSKPTVAKTGLALIKDCCGATQCNIM”: the protein production result was “failed”.

On to “MTTTPTTPATPTTPNAPTPDVTITVIVYNDAERLPRAVASLLRQTHPAIEIIISDDHSTDATPSVARELEASDPRIRYLRLPENSGGCSAPRNRALEIARAPYLMFLDSDDELPENAVALLLAAHREREVDFAMGAVERIRVDTGHRSTWMAHLVDERRTVDGIEAEPGLLFEHLATSKMYTRDFLDRHALRFPEGIHYEDQLFSAQAYCLAKSFTVIPQPVYRWYIAPYVAQDAASISNQRHKLSNVSDRIHVQTLIDDFLAESGHESLRQDKDYKFLKHDFRMYAGDLPYRDEDWLTGFARIVTPYLETLSPGAYALLPRAERVVLQLVRDGRLSEAQLAARGLGHSVAPRETTADDSGCLYWGPRLPSSDWARRELDVTELGLDSRPFPSAQFRHEITSVTPGRGMTVDLTIRTYDPGLRLPVGPQRASVVVAPGRRRLMVPFRLDPVRPGVFEGRVRVDLAAAPLPVQGFDGVRHPLLRLEQQGLANTGVLLAPLTFPTLRATRPGSLRHEVTVEPEGKAAGRLQIRWRPVGVTARVAGPVARKVAGPRVRRAARLVRSALR”, for which the protein production result is “failed”.

“MLRLVKTRPSLRLGPSETAVIRVLDQERIDRINQDLTRAWKADVETTCVLSGILLLPCLILICLLDGPLFAKVILCTFLCLMVGGWCIAKWLNAQAQPRTDITGVKVEQLEGYFDRRWVRNGGKPYIEYSFGKHWLHIQTSACSFFSGDTQLKLNRRYRVDALYLTGHSSAYTGYYLLEETFKEIFDDSDLSAAEKIQIAEREKRINQDLEEQHKRLYRLYRNPQGELEAVAIGFNFAACFLTVLWSFCVSLYWVTGLTLAALGLILLIPDTGAGHPWFALGWLLSAGVFGACGNLWRERQVLSKGFVQVDALLSCNPDQAKVQYKRKVEEAAPGFGQ”: the protein production result is “failed”.

In the case of “MASKSSFMATFNIVTLMLMVASSTVTARPLMKPSMGTSSPTTSLVYRLKLDEDTGYCWDSLMQLQHCSGELILFFLNGETYIGPGCCSAIRTIGRKCWPTMIGVLGFTAQEGDMLQGYCDGNDSDNNGEDHALASSTLPLSVNFKTTVVRSSASPSNP”, the protein production result is recorded as “failed”.

Regarding “MEESTVQAPSKRRCSVYEVDGFRFRRKKKRTTESSFVEPIQKEVSNSDSCGHVNDDLNNEEKENKLNVATVPIKSRETVSLAKQEEKTKKLYCESISKDQSEEQRLKALCEAVWTEIYKEAIEEKLPEKGTSLRVLEDVRVAFLDQLTWYLDNPEQRSKTVSEISRPNPINLELEVKIKSLEHDLNCYCNELLGWSNAKSILEEPAKDNKSNETAFSIEERAKKIAVSLSSPYQPQLTRLIKEATVCLDINFTELLEICRIVLTFKNQTAERIKVSYKQELFSNHYQHENS”, the protein production result is “failed”.

Take “MSGKRVAKNTLFQIVKMLITTVVNLYMVRVLLHQLGVEGYGIFNLIAGVLALMLFLNGAMTTSSQRYLSFYSTQQLEKRTSVFATTKSLHIVVAMIIFLLLFSLQTFIFEDLINIPVSVVSSAQSLYQIMAVGVLASVVTVPFNAQINANEDLGIDAVFSVFESLFKLIAAFLIVFFENQLVSLGALFVLVSWTMLIVKVVYCRIKYEECNLLNFKLDIALFKEMIGFTSWNSFGAICGVARVQGLAVVLNHFFGVYINAVYAIAVQVNGKLKEFSINIMKAFNPRIVKAESKDNREEMLHLSMLASRFSLLLYSVIALPIFFETDFMLSIWLGDYPDGVLTFIKLFLVLAFVNLTTVGLQTAIQATGDVKAYQSTIGSVLLLTVPLAYIFLSLGYPPYTVIVVSIFMEVVSCGMRLAFLKLKAGLSIKKYILFVINKALQVLIPTIVVLFSLTISFEQSILRFISTTLVSFGMISFLTYWLVLGVEEKKMIRLKV”: the protein production entry was “not failed”.

With “MSVEAAKNARELLLKEYRAVLSTHSKKWPGFPFGSVVPYCLDAEGRPLILISRIAQHTHNLQADPRCSMLVGERGAEDIQAVGRLTLLAEARQLAEEEVAAAAERYYRYFPESADYHRVHDFDFWVLQPVQWRFIGGFGAIHWLAAERVPLANPFAGEAERGMVEHMNSDHAAAIAHYVELAGLPAHAAAQLAGIDTEGFHLRIGQGLHWLPFPAACGNPGAVRQALVQLARAERWPTVEPEQG”, the protein production result was “not failed”.

In the case of “MLDLAAPFFLLLLPLPFLVRRFLPPHAAQEGALYLPEAFAAAARPTSAFARSERWEGALRAILWLALVLALAGPERLKAVPDLSASGREIVLTLDMSGSMLIEDFDIDGVQSTRLEAVKRVARSFVEERQGDRIGLVLFANRAYVAAPLTFDLAAVGRAIEEASIGITGRSTAIADGLGLALKSVTESSAASRVIVLLSDGQDNAHQIDARQVAGLAARHGVRIHTIALGPDDLETRPAARDAVDTATLRAIAEASGGRSYRVRGMEDLRAMAADLDRLEPNPAERPPVLVPEPLWPWPALLALGAALVLGLRRAGLAPWPRRAGRAA”, the protein production entry was “failed”.

Turning to “PEAERSTISLTRLHATIQNAPGVLGLVCTIIGEAGGNIVNLRMHHRQSDFFDTDIDVEVRDAKHLTNIQAALRACPSVETVDRTR”, the protein production result is on record as “failed”.

Turning to “VLAPVVPGKALEFPQDFGAHNDFRIEWWYVTGWLETPTGKPLGFQITFFRTATEIDRDNPSHFAPDQLIIAHVALSDPAIGKLQHDQKIARAGFDLAYARTGNTDVKLDDWIFVRETDGRYRTRIEAEDFTLTFILTPSQPLMLQGENGFSRKGPGAPQASYYYSEPHLQVSGIINRQGEDIPVTGTAWLDREWSSEYLDPNAAGWDWISANLDDGSALMAFQIRGKDDSKIWAYAALRDASGHTRLFTPDQVSFHPIRTWRSARTQAVYPVATRVLTGETEWQITPLMDDQELDSRASAGAVYWEGAVTFTRDGQPAGRGYMELTGYVRPLSM”, the protein production result was “not failed”.

For “MKQPTLAVIMTCHNRRNTTLACLQALYQQKNHFDVYLTDDGSTDGTAEFIKAEYPDVKIFQGDGNLFWVGGMHLAFGEAIKNQYDYYLWLNDDTFLEADALEKLLQVHENLAVEGYGQSIVVGSTQDPITKQATYGGAVKSKKWYSNKFEFLEPTSDVQKCDAMYGNCVLIPHSVTLKVGNIDTAFIHSLGDLDYALRARNLGCHVWVAPGYIGTCNKNSVRNSWVDTKLPVLERLRKILQIKGFPLKPWTTFCSRHSGPFWIFYWFLPYIRAIIGYKNLATSPTFSEDPKETKPEV”, the protein production entry is “failed”.

In the case of “MFENESLSFEEQTIIQAAERYVQQELANEASGHDWWHIYRVTQLAKTIAEKEQANLFLCILTALLHDIGDEKFNESEEAGLLKVQQWLEANNVSTEQTNHILSIIANMSFKGGNTGKTVTTLEGKVVQDADRLDAIGAIGIARVMAYSGNKGRLIHDPHKQPREQLTQEEYRNGEDTAIMHFYEKLLKLKEQMNTNYGRLLAEKRHQFMELYLEEFYQEWDGHRLEHHHHHH”, the protein production entry was “not failed”.

Regarding “MKHSGFQAKRLIQLALPVLIAQVTQTMMGFIDTVMAGRVSAVDMAAVAVGTSLWLPAILFVQGLLMAFTPLFAHHNGANNQKAIQPLAFQGAYLALIGGLGVMVFLASAPLVLSHMNLEPQLYNLTIGYIDGILWGAPAFVLYQVLRGCSEGISYTLPTMVIGFVGLAVNIPANYIFIYGHFGIPAMGGAGCGIATALVFWAMLIAMAIYMQFHKKFAALAPFSQFHRPDFATMKKMTKLGLPIAMALFFEVSLFAIIALLLAPLGATVVASHQIALNFSAIVFMLPLSIGIAVSIRIGYYLGRDRADISAVVAKVGLLLALSLALSTAILTVLFRFQIAELYNSDPEVVVLAGSLMLMAALYQLSDSVQVVAAGALRGYKDTRSAFYITLFSYWGIGMSLGYTLAYTDFIVPAMGAHGFWTGLIAGLTSAALLFFIRLRYIQKHRVHLSLIEGDSVHH”, the protein production entry is “failed”.

Turning to “NLLDDAVKRISEDPPCKCPTKFCVERLSQGRYRVGEKILFIRMLHNKHVMVRVGGGWETFAGYLLKHDPCRMLQISRVDGKTSP”, the protein production result was “not failed”.

For the sequence “MTIKIALLGFGTVAKGIPYLLKENQHKLLSLEGEDIVIDKVLVRDNESRQRFINQGFTYNFVTEINTILQDSQIDIVVELMGGIEPAKTYLSQALGFGKHIVTANKDLIALHGKELMDLADARGLALFYEGAVAGGIPILRTLSHSFASDKMTRLLGILNGTSNFMLTKMFEEGWSYEQALKKAQELGYAESDPTNDVEGIDTAYKATILSQFGFGMPIDFDDVNYKGISSIRSEDVEVAQEMGFAIKLVADLRETPTGISVDVSPTLISQKHPLAAVNHVMNAVFIESIGIGQSLFYGPGAGQNPTATSVLADIIDISRSIRSQIKIKPMNTYHCPCRLSMQSDIFNEYYLAISLRNAEDSDTLGRYFEQENIGLKNVIEKALGDKQQEIYVLTDEVSQEKITQFIEEFPESGVIQLINVFKVIGG”, the protein production result is reported as “failed”.

In the case of “MASPATFQFSRTKLNLQINLVERKSPSKLSFPLLFRDQAKSTPIRFPVIRASSSSSASNHKPSLLKTTFISLTAAAALFSASFYFVNKRAAMTPVAVVETTLEKHLETQSNDVNALSLLTEIKFKSDKHEQAIVFLDRLIEIEPYERKWPAMKARILSYHGKSESAIEAFEEILEKDPIRVDAYHYLVMEYYNSKPKLTEIEKRINKVIRRCKKEKKTKEILGFRMLIAQIRFIEGKSVEAIRICEELVKEDPNDFTIYLFQGVVYTLMNKGEEAAKQFEHVARVIPRNHPSRETAARTTNSNEWRVIVAYDNVYCYLSTFARLSMASLFNKFG”, the protein production result is recorded as “failed”.

As for “MSEYRTVSAAAMLGTYEDFLELFEKGYEDKESVLKSNILYDVLRNNNDEARYKISMFLINKGADIKSRTKEGTTLFFPLFQGGGNDITGTTELCKIFLEKGADITALYKPYKIVVFKNIFNYFVDENEMIPLYKLIFSQSGLQLLIKDKWGLTALEFVKRCQKPIALKMMEDYIKKYNLKENS”, the protein production entry was “not failed”.

As to “MFWIVLIVILLLALAGLFFVRAQSEREWMREVSAWQEKKGEKQAELPEIKDGMPDFPEFSLMLFHAVKTAVYWLFVGVVRFCRNYLAHESEPDRPVPPASANRADVPTASDGYSDSGNGTEEAETEAAEAAEEEAADTEDIATAVIDNRRIPFDRSIAEGLMQSESKTSPVRPVFKEITLEEATRALSSAALRETKKRYIDAFEKNGTAVPKVRVSDTPMEGLQIIGLDDPVLQRTYSRMFDADKEAFSESADYGFEPYFEKQHPSAFSAVKAENARNAPFRRHAGQEKGQAEAKSPDVSQGQSVSDGTAVRDARRRVSVNLKEPNKATVSAEARISRLIPESRTVVGKRDVEMPSETENVFTETVSSVGYGGPVYDEAADIHIEEPAAPDAWVVEPPEVPEVAVPEIDILPPPPVSEIYNRTYEPPAGFEQAQRSRIAETDHLAADVLNGGWQEETAAIADDGSEGAAERSSGQYLSETEAFGHDSQAVCPFEDVPSERPSCRVSDTEADEGAFQSEETGAVSEHLPTTDLLLPPLFNPEATQTEEELLENSITIEEKLAEFKVKVKVVDSYSGPVITRYEIEPDVGVRGNSVLNLEKDLARSLGVASIRVVETIPGKTCMGLELPNPKRQMIRLSEIFNSPEFAESKSKLTLALGQDITGQPVVTDLGKAPHLLVAGTTGSGKSVGVNAMILSMLFKAAPEDVRMIMIDPKMLELSIYEGITHLLAPVVTDMKLAANALNWCVNEMEKRYRLMSFMGVRNLAGFNQKIAEAAARGEKIGNPFSLTPDDPEPLEKLPFIVVVVDEFADLMMTAGKKIEELIARLAQKARAAGIHLILATQRPSVDVITGLIKANIPTRIAFQVSSKIDSRTILDQMGAENLLGQGDMLFLPPGTAYPQRVHGAFASDEEVHRVVEYLKQFGEPDYVDDILSGGGSEELPGIGRSGDGETDPMYDEAVSVVLKTRKASISGVQRALRIGYNRAARLIDQMEAEGIVSAPEHNGNRTILVPLDNA”, the protein production entry is on record as “failed”.

Source of the values: a protein production outcome set (Wang et al. 2014).
